Substitutions are numbered along the chain they refer to.
B1: SR16983-R3-P5-A06 (VHH)
VHH: QLQLVESGGGLVQAGGSLRLSCVASGTTFTIEDIGWYRLAPGKQRELVAIISGGNTNYADSVKGRFTISRDNAKNTVYLQMNSLKPEDTAVYYCNGRTKATVKWGRGTQVTVSS
B2: SR16983-R2-P5-D01 (VHH)
VHH: B1 VHH with A73T
B3: SR16983-R2-P4-E06 (VHH)
VHH: QLQLVESGGDLVQAGGSLRLSCAASGFTLDDYAIGWFRQAPGKEREGVSCIASSDGSTYYADSVKGRFTISTDNAKNTVYLQMNSLKPEDTAVYYCARGGLLLPKPELFDSWGQGTQVTVSS
B4: SR16983-R3-P5-F04 (VHH)
VHH: B3 VHH with D10G, D110E, S111Y
B5: SR16983-R2-P3-E05 (VHH)
VHH: EVQLVESGGGLVQAGGSLRLSCAASGLTASTYVMAWFRQAPGKERDFVSLIDWRGEPTYANSVKGRFTISRDNGKNTVFLQMNSLRPEDTALYYCAVRASPGYVASLYPYWGRGTQVTVSS
B6: SR16983-R2P1C08 (VHH)
VHH: QVQLVESGGGLVQPGGSLRLSCAASGRTFSNYAMGWFRQAPGKERRFVAGISRDDTSTSYADSVKGRFTILRDRSKNTVDLQMNSLKPEDTAIYYCAAARGIYGEISRYTGDYDSWGQGTQVTVSS
B7: SR16983-R3-P3-A08 (VHH)
VHH: EVQLVESGGGLVQAGGSLRLSCAASGRTFVGTYVMGWFRQAPGKAREFVAASSRSTGNTVYLDSVKGRFTVSRDDAKNTLYLQMNSLKPEDTAVYYCAARASINYNAANWPYWGQGTQVTVSS
B8: SR16983-R2-P2-F02 (VHH)
VHH: QLQLVESGGGLVQAGGSLRLSCAASGTTFSFVYMGWYRQAPGNQRDLVARISSDGSTNYADSVKGRFTISRDNAKNTVYLQMNSLRPEDTARYYCFYNGHLNKWGQGTQVTVSS
B9: SR16983-R2-P2-H04 (VHH)
VHH: B8 VHH with L2V, Y37F, R71G, R86K, Y94F, G99A
B10: SR16983-R2-P2-F07 (VHH)
VHH: B8 VHH with T27S, V32N, D54G, S56I, R71G, N76D, R86K, H100Y
B11: SR16983-R3-P2-G01 (VHH)
VHH: B8 VHH with T27S, V32N, D54G, S56I, R71G, R86K, H100Y, Q106R
B12: SR16983-R3-P3-E02 (VHH)
VHH: QLQLVESGGGLVQAGGSLRLSCVLSGNTFGRNVITWYRQPPGKQREFIAMITSSGSTRYADSVKGRFTMSRDTAKNTAFLQMSSLKVEDTAVYYCWTAIAGQGEYWGQGTQVTVSS
B13: SR16983-R4-P1-A05 (VHH)
VHH: B12 VHH with Q1E, L2V, G16E, N27S, S53T, S56N, S84N, V87L
B14: SR16983-R3-P2-F07 (VHH)
VHH: QLQLVESGGGLVQAGGSLRLSCAASGTTFDMNSMGWYRQAPGFKRDLVATISIGGDTNYADSVKGRFTISRDNAKNTVYMQMNSLKPEDTAVYYCNAERIWPNRRSFWGQGTQVTVSS
B15: SR16983-R2-P2-D01 (VHH)
VHH: QLQLVESGGGLVQAGGSLRLSCVASGRTFSTYAMGWFRQAPGKEREFVGAIRWDGGSTNYANSVKGRFTISRDNAKNTVYLQVNSLKPEDTAVYYCAARASINYNYANWPYWGRGTQVTVSS
B16: SR16983-R2-P3-B05 (VHH)
VHH: QLQLVESGGGLVQPGGSLRLSCAASGRTVGSYVMGWFRQAPGKEREFLAANSRSTGNTVYADSVKGRFTISRDDAKNTLYLQMNSLKPEDTAVYYCATRASINYNYANWPYWGQGTQVTVSS
B17: SR16983-R3-P3-C10 (VHH)
VHH: B16 VHH with P14A, V33A, N51F, N57P, T98A
B18: SR16983-R3-P5-F03 (VHH)
VHH: B16 VHH with L2V, P14A, S31T, V33A, M34I, L48V, N51F, A61P, T98A
B19: SR16983-R3P2D06 (VHH)
VHH: B16 VHH with F47L, N51S, T98A
B20: SR16983-R3-P3-E04 (VHH)
VHH: B16 VHH with L2V, P14A, V29F, L48V, N51A, A61P, T98A
B21: SR16983-R2-P4-D07 (VHH)
VHH: B16 VHH with L2V, P14A, V29I, L48V, A49V, N51F, N57H, T58I, V59S, T98A
B22: SR16983-R3-P3-H10 (VHH)
VHH: QVQLVESGGGLVQAGDSLRLSCAASTRTVGTYVMGWFRQAPGKERELVAASSRSTGNTVYPDSVKGRFTVSRDDAKNALYLQMNSLKPEDTAIYYCAARASINYNYANWPYWGQGTQVTVSS
B23: SR16983-R3-P4-E06 (VHH)
VHH: B16 VHH with P14A, V33A, M34V, G35A, F47L, N51S, S71A, T98A
B24: SR16983-R4-P1-C05 (VHH)
VHH: B16 VHH with P14A, V29F, E46A, L48V, A49G, N51A, N57T, A61L, T98A
B25: SR16983-R3-P5-H06 (VHH)
VHH: B16 VHH with P14A, V29F, S31T, M34I, L48V, N51F, A61P, L79V, T98A
B26: SR16983-R3-P2-D01 (VHH)
VHH: EVQLVESGGGLVQAGGSLRLSCAASGFTFSTKWMYWVRQGPGKGLEWVSTIDASGGSTYYADSVKGRFTISRDNTEKKVYLQMNSLESADTAVYYCARSAGGQFRGRGTQVTVSS
B27: SR16983-R3-P5-C09 (VHH)
VHH: QLQLVESGGGLVQPGGSLRLSCAASGFTFSTKWMYWVRQGPGKGLERVAAIDASGGSTYYADSVKGRFTISRDNSKNTLYLQMNSLESADTAVYYCARSEGGQFRGRGTQVTVSS
B28: SR16983-R3-P3-H05 (VHH)
VHH: B27 VHH with L2V, G16R, S54G, K76E, L79V, Q103L, S115A
B29: SR16983-R3P2H10 (VHH)
VHH: B27 VHH with S54G, K76E, L79V, Q103L, S115A
B30: SR16983-R2-P2-C04 (VHH)
VHH: QLQLVESGGGLVQAGGSLRLSCAASRTTFRINGVDWYRQVPGKQRELVATASSDGPTNYAESVKGRFTISRDNAKNTVYLQMNSLKPEDTAVYYCRIVLPSRIIWGQGTQVTVSS
B31: SR16983-R3P2D02 (VHH)
VHH: QLQLVESGGGLVQPGGSLRLSCAASGFTLDGYAIGWFRQAPGKEREGVSSIATSDGSTYYADSVKGRFTISGDDAKNTVYLHMNSLKPEDTAVYYCARGGSLVLRPKYYDYWGQGTQVTVSS
B32: SR16983-R2-P5-A12 (VHH)
VHH: QVQLVESGGGLVEAGGSLRLSCAASGRTFSSGALGWFRQAPGKEREFVATIRWSDERKQYSEFVKGRFTISRDSAKNTVYLQMNNLQPEDTAVYYCRSTVGNVLYWGQGTQVTVSS
B33: SR16983-R2-P4-E03 (VHH)
VHH: B32 VHH with E13Q
B34: SR16983-R4-P1-C12 (VHH)
VHH: QLQLVESGGGLVQAGGSLRLSCAASGSTFSINVFAWYRQGSGEQRELVAFIGRSGTARYGDSVKGRFSISRDNAKKTVYLQMDSLRPEDTAVYYCNLGDYWGQGTQVTVSS

Columns and labels:
[1] = target: T1, human APC-PPACK (active site-blocked APC) (human, UniProt P04070 43-461, active site bound by the tripeptide inhibitor Phe-Pro-Arg-chloromethylketone (PPACK)); assay: ELISA
T1 construct: Bought (Haematologic Technologies)

[2] = target: T2, human protein C (PC) zymogen (human, UniProt P04070 43-197; P04070 200-461); assay: ELISA screen, PC-coated wells, OD450, n=2
T2 construct: Bought

[3] = target: T2, human protein C (PC) zymogen; assay: ELISA screen, PC-coated wells, OD450, n=2 [Continued]

T1 sequence (P04070 other isoform, or with tags, fused parts or gaps): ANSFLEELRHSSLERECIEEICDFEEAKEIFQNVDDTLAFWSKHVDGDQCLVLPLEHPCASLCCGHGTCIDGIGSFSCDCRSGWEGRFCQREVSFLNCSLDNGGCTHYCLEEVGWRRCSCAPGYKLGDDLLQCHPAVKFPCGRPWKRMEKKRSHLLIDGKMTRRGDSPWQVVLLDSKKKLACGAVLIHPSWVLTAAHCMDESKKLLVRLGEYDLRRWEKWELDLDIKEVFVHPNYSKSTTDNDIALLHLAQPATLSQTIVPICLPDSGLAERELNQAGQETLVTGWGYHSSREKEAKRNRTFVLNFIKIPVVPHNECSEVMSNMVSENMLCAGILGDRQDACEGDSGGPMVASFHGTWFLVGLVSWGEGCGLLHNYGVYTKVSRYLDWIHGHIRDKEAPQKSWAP
T2 sequence (P04070 43-197, chain 1 of 2): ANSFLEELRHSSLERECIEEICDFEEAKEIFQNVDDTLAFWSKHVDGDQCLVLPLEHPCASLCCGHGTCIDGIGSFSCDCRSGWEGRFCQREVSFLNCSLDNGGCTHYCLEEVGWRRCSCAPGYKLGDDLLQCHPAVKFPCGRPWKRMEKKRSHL
T2 sequence (P04070 200-461, chain 2 of 2): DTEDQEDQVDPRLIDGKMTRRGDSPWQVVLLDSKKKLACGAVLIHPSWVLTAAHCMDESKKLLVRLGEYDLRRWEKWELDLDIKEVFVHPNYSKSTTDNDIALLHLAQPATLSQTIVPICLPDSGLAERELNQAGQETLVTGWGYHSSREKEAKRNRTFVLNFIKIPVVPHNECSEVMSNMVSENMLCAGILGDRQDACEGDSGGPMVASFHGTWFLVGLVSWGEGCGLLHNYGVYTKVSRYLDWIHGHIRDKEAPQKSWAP

Row | Binder | binding result [1] | binding result [2] | binding result [3]
1 | B1 | binds | no binding | 
2 | B2 | binds |  | no binding
3 | B3 | binds | no binding | 
4 | B4 | binds | no binding | 
5 | B5 | binds |  | no binding
6 | B6 | binds | no binding | 
7 | B7 | binds | no binding | 
8 | B8 | binds | no binding | 
9 | B9 | binds | no binding | 
10 | B10 | binds | no binding | 
11 | B11 | binds | no binding | 
12 | B12 | binds |  | no binding
13 | B13 | binds | no binding | 
14 | B14 | binds | no binding | 
15 | B15 | binds |  | no binding
16 | B16 | binds | no binding | 
17 | B17 | binds |  | no binding

Row | Binder | binding result [1] | binding result [2] | binding result [3]
18 | B18 | binds | no binding | 
19 | B19 | binds |  | no binding
20 | B20 | binds | no binding | 
21 | B21 | binds | no binding | 
22 | B22 | binds |  | no binding
23 | B23 | binds | no binding | 
24 | B24 | binds | no binding | 
25 | B25 | binds |  | no binding
26 | B26 | binds | no binding | 
27 | B27 | binds | no binding | 
28 | B28 | binds | no binding | 
29 | B29 |  | no binding | 
30 | B30 | binds | no binding | 
31 | B31 | binds |  | no binding
32 | B32 | binds | no binding | 
33 | B33 | binds | no binding | 
34 | B34 | binds |  | no binding

From patent publication US20250163183A1 (COAGULANT THERAPEUTICS, published 2025)
